From patent publication US20190270826A1 (Janssen / Centocor, published 2019)
Where a chain is given by its changes, count along the chain named. Names and notes keep the numbering of the source.

Legend:
[1] = target: T1, recombinant human IL1RAP ECD (human, UniProt Q9NPH3 21-367); assay: SPR, summary
T1 construct: His-tagged; also called hIL1RAP-ECD; rhuIL1RAP
T1 sequence: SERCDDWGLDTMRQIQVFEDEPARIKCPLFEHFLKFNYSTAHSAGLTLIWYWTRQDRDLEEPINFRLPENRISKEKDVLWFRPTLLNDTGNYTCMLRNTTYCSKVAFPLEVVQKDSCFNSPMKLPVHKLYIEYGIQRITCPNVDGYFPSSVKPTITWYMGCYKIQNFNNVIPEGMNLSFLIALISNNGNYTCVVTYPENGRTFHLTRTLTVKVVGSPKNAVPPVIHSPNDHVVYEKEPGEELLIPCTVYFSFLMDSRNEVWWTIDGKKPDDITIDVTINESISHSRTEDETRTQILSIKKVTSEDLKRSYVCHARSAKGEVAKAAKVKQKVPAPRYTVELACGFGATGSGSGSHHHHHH

[2] = target: T2, recombinant cyno IL1RAP ECD (cynomolgus monkey, UniProt P59822 21-367 (rhesus entry)); assay: recombinant protein
T2 construct: also called rcynoIL1RAP
T2 sequence: T1 sequence with L183F, T273P, K326T

[3] = target: T1, recombinant human IL1RAP ECD; assay: SPR; KD against parent IAPB54
[4] = target: T1, recombinant human IL1RAP ECD; assay: SPR (ProteOn)
[5] = target: T3, cyno IL1RAP ECD displayed on HEK-293F cells (pDisplay) (cynomolgus monkey, UniProt P59822 21-367 (rhesus entry)); assay: HEK-293F cells (MSD)
T3 sequence: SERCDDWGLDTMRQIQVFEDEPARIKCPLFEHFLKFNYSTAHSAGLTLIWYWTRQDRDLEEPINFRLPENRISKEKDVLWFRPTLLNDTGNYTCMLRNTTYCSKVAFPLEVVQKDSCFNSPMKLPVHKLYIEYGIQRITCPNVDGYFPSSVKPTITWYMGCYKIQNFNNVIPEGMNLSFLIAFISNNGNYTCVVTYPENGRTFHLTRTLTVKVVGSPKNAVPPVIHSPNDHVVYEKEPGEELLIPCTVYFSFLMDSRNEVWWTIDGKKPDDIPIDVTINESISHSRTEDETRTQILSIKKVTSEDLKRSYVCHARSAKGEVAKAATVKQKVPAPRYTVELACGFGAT

human FcRn = target: T4, human FcRn (human, UniProt P55899 24-297; P61769 21-119, limits assumed); assay: AlphaScreen competition, human FcRn (n=1); displaced: biotinylated control mAb B21M WT IgG1 (m27); pH 6.0
T4 construct: GST-tagged
Excerpt: (§1) Measurements were made using an AlphaScreen™ assay (Amplified Luminescent Proximity Homogeneous Assay (ALPHA), PerkinElmer, Wellesley, Mass.), a bead-based luminescent proximity assay. Laser excitation of a donor bead excites oxygen, which if sufficiently close to the acceptor bead generates a cascade of chemiluminescent events, ultimately leading to fluorescence emission at 520-620 nm.

human FcγRI = target: T5, human FcγRI (human, UniProt P12314 16-292, limits assumed); assay: AlphaScreen competition, human FcγRI (n=1); displaced: biotinylated control mAb B21M hIgG1 AlaAla; pH 7.2
T5 construct: GST-tagged, on glutathione acceptor beads; also called FcγRT [sic]
Excerpt: as §1

human FcγRIIb = target: T6, human FcγRIIb (human, UniProt P31994 43-217, limits assumed); assay: AlphaScreen competition, human FcγRIIb (n=1); displaced: biotinylated control mAb B21M hIgG1 WT; pH 7.2
T6 construct: GST-tagged
T6 sequence (looked up): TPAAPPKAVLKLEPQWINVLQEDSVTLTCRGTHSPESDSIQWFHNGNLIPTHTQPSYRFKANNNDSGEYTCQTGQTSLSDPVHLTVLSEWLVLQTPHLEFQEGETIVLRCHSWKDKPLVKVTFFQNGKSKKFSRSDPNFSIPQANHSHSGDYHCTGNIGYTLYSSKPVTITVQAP
Excerpt: as §1

B1: IAPB54 (antibody, human IgG4 S228P, lambda, F234A L235A, V domains shown)
VH: QVQLVQSGSELKKPGASVKVSCKASGYTFNTYAMNWVRQAPGQGLEWMGWINTNTGNPTYAQGFTGRFVFSLDTSVSTAYLQISSLKAEDTAVYYCARRYFDWLLGAFDIWGQGTMVTVSS
VL: QSALTQPRSVSGSPGHSVTISCTGTSSDVGDYNYVSWYQQRPGKVPKLLIYDVSKRPSGVPDRFSGSKSGNTASLTISGLQAEDEAIYFCCSYAGNYNVVFGGGTKLTVLG
notes: IgG4-PAA; also called 17B04 with human IgG4-PAA
- Kd [1]: 0.58 nM
- binding result [2]: binds
- Fold Different from parent [3]: 1 fold
- Kd [4]: 0.0775 nM
- koff [4]: 7.48e-05 s⁻¹
- kon [4]: 965000 M⁻¹ s⁻¹
- binding result [5]: binds

B2: IAPB63 (antibody, human IgG4 S228P, lambda, F234A L235A)
heavy: not shown
light: QSALTQPRSVSGSPGHSVTISCTGTSSDVGDYNYVSWYQQRPGKVPKLLIYDVSKRPSGVPDRFSGSKSGNTASLTISGLQAEDEAIYFCASYAGNYNVVFGGGTKLTVLGQPKAAPSVTLFPPSSEELQANKATLVCLISDFYPGAVTVAWKADSSPVKAGVETTTPSKQSNNKYAASSYLSLTPEQWKSHRSYSCQVTHEGSTVEKTVAPTECS
notes: IgG4-PAA; whole chains; also called IAPB54-LC-C91A
- IC50 (read off the curve) (human FcRn): ~200 nM
- Kd [1]: 0.11 nM
- Fold Different from parent [3]: 1.4 fold
- Kd [4]: 0.108 nM
- koff [4]: 9.76e-05 s⁻¹
- kon [4]: 900000 M⁻¹ s⁻¹
- IC50 (read off the curve) (human FcγRI): ~90 nM
- binding result (human FcγRIIb): binds
